Data reported in article PMC11570498, “A promiscuous mechanism to phase separate eukaryotic carbon fixation in the green lineage” (Nature Plants, 2024).

Key:
[1] = molecular target: T1, CsLinker α3 fragment (residues 142–207) (Chlorella sorokiniana UTEX1230); test: SPR; Rubisco immobilised as bait, fragments as analyte (prey); Biacore T100/T200, 25 °C; analyte injected at 15 μl/min for 30 s, 360 s dissociation; fit of y = Bmax·x/(KD + x); apparent KD; triplicate; settings: both partners purified
T1 construct: CsLinker (CSI2_123000012064), Chlorella sorokiniana UTEX1230, residues 142–207: one whole repeat centred on predicted α-helix 3; residues numbered by their position in the full-length CsLinker; From the plasmid His-mEGFP-TEV-α3-TEV-MBP-His; also called single helix α3 fragment; source: E. coli BL21 (DE3), purified (IMAC, TEV cleavage, second IMAC, SEC); not shown: His6, N-terminal, cleaved; …

[2] = molecular target: T2, CsLinker α3–α4 fragment (residues 142–272) (Chlorella sorokiniana UTEX1230); test: as above; settings: both partners purified
T2 construct: CsLinker (CSI2_123000012064), Chlorella sorokiniana UTEX1230, residues 142–272: two repeats with predicted α-helices 3 and 4; residues numbered by their position in the full-length CsLinker; From the plasmid His-mEGFP-TEV-α3–α4-TEV-MBP-His; also called α3–α4 double repeat fragment; source: E. coli BL21 (DE3), purified (IMAC, TEV cleavage, second IMAC, SEC); not shown: His6, N-terminal, cleaved; …

- Kd [1]: 162 µM
- Kd [2]: 1.56 µM
B1: Ulva mutabilis Rubisco (UmRubisco) (complex)
chain 1: GVKDYRLTYYTPDYQVKDTDILAAFRMTPQPGVPAEEAGAAVAAESSTGTWTTVWTDGLTSLDRYKGRCYDIEPLGEDDQYIAYIAYPLDLFEEGSVTNLFTSIVGNVFGFKALRALRLEDLRIPPAYVKTFQGPPHGIQVERDKLNKYGRGLLGCTIKPKLGLSAKNYGRAVYECLRGGLDFTKDDENVNSQPFMRWRDRFLFVAEAIYKSQSETGEVKGHYLNATAGTCEEMMERGQFAKDLGVPIVMHDYITGGFTANTTLAHFCRASGLLLHIHRAMHAVIDRQRNHGIHFRVLAKILRMSGGDHLHSGTVVGKLEGEREITLGFVDLMRDDYIEKDRSRGIYFTQDWVSLPGTMPVASGGIHVWHMPALVEIFGDDACLQFGGGTLGHPWGNAPGAAANRVALEACTQARNEGRDLASEGGDVIRAA
chain 2: MRVWTPHNNKMFETFSFLPPLSHGEIARQVDYIIANGWTSCLEFADSDCAYVQDKANIRFGNSASCNYYDNRYWTMWKLPMFGCTNPNEVLGEIDSCKRAFPESYIRLVAFDNIAQCQTIGFLVNRPPRSGDFQSPENRSVA
